Paper PMC4909301, “Fibulin-5 Regulates Angiopoietin-1/Tie-2 Receptor Signaling in Endothelial Cells” (PLoS ONE, 2016)

Target: T1, recombinant human Tie-2/Fc chimera (human, UniProt Q02763 23-748)
T1 construct: TIE-2 receptor tyrosine kinase, human, part fused to Fc in R&D Systems Cat. #313-TI-100; source: bought: R&D Systems
Test: ELISA; solid-phase binding assay; TIE-2/Fc (4.0 ug/ml) or Fibulin-5 (20 ug/ml) coated on 96-well plates; 1:2 serial dilutions of soluble Ang-1 in 2% non-fat milk in TBS, 1 hr, room temperature; detected with Ang-1 antibody
Conditions: both partners purified

T1 sequence (Q02763 23-748, change not shown): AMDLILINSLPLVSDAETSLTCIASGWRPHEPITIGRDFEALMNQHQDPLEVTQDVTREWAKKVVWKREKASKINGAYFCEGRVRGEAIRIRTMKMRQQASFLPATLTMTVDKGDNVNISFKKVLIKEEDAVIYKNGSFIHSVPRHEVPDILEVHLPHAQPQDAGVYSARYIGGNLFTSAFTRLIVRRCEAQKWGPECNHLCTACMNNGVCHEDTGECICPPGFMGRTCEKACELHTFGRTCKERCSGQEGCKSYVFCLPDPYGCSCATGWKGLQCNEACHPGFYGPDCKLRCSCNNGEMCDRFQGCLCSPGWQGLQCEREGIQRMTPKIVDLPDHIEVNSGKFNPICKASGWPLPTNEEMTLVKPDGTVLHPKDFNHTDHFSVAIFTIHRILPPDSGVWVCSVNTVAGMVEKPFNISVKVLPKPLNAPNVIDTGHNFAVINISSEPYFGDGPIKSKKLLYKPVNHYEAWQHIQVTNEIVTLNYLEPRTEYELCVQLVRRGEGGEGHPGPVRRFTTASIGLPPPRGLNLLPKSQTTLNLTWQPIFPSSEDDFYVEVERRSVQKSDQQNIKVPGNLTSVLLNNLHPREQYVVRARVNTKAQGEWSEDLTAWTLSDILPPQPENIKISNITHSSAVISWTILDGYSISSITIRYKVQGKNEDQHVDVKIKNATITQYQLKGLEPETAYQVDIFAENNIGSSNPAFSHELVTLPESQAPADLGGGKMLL

binding result: binds
B1: recombinant human Ang-1 (angiopoietin-1) (ligand, UniProt Q15389 16-498, looked up)
chain: HIGCSNQRRSPENSGRRYNRIQHGQCAYTFILPEHDGNCRESTTDQYNTNALQRDAPHVEPDFSSQKLQHLEHVMENYTQWLQKLENYIVENMKSEMAQIQQNAVQNHTATMLEIGTSLLSQTAEQTRKLTDVETQVLNQTSRLEIQLLENSLSTYKLEKQLLQQTNEILKIHEKNSLLEHKILEMEGKHKEELDTLKEEKENLQGLVTRQTYIIQELEKQLNRATTNNSVLQKQQLELMDTVHNLVNLCTKEGVLLKGGKREEEKPFRDCADVYQAGFNKSGIYTIYINNMPEPKKVFCNMDVNGGGWTVIQHREDGSLDFQRGWKEYKMGFGNPSGEYWLGNEFIFAITSQRQYMLRIELMDWEGNRAYSQYDRFHIGNEKQNYRLYLKGHTGTAGKQSSLILHGADFSTKDADNDNCMCKCALMLTGGWWFDACGPSNLNGMFYTAGQNHGKLNGIKWHYFKGPSYSLRSTTMMIRPLDF
notes: angiopoietin-1, human, recombinant, R&D Systems Cat. #923-AN/CF; The introduction calls angiopoietins oligomeric glycoproteins; source: bought: R&D Systems
